The text below walks through data of the nanobody polyreactivity screen of Harvey et al. (2022).

The nature of this series: yeast display, Sf9 membrane polyspecificity reagent, FACS + sequencing; frameworks hold sequencing errors. The gist of the method:
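Sorting gates, low and high (top ~1%), were placed on anti-HA fluorescence to track expression and on streptavidin fluorescence to track reagent binding. A clone's polyreactivity label is taken from the gate it came out of. The reagent was 10% biotinylated, detergent-solubilized Sf9 membrane, applied for 1 hour at 4 °C to galactose-induced yeast display cells.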
Take “QVQLVESGGGLVQAGGSLRLSCAASGFTFYPYAMGWYRQAPGKERELVASISWSGGSTYYADSVKGRFTISRDNAKNTVYFQMNSLKPEDTAVYYCNAEYWLPYYPDYDFWGQGTQVTVSS”: the “polyreactivity (PSR sort gate)” value is given as “low polyreactivity”.
The entry for “QVQLVESGGGLVQAGGRLRLSCAASGSNFGSNAMGWYRQAPGKESEFVAVITCRVGDTYYADSVKGRFTISRDNAKNTVYLQMYSLKPEDTAVYYCNVDWKVYGAPDYRIAWKYDYWGQGTQVTVSS” is “low polyreactivity”; for “QVQLVESGGGLVQAGGSLRLSCAASGFTFRKYTMGWYRQAPGKERELVAAITNSGTSTYYADSVKGRFTISRDNAKNTVYLQMNSLKPEDTAVYYCARDNEPDYYSYPYDYWGQGTQVTVSS” it is “low polyreactivity”.
For the sequence “QVHLVESGGGLVQAGGSLRLSCAASGFIRNYAMGWYRQAPGKERELVAAITSSGGRTYYADSVKGRFTISRDNAKNRVYLQMNSLKPEDTAVYYCAAPSRITTGPHREYDYWGQGTLVTVSS”, the “polyreactivity (PSR sort gate)” value is “high polyreactivity”.
To “QVQLVESGGGLVQAGGSLRLSCAASGSIFVRNTMGWYRQAPGKERELVATISSGGRTYYADSVKGRFTISRDNAKNTVYLQMNSLKPEDTAVYYCAAGYSYAQYSYPFLSFAFGYWGQGTQVTVSS” belongs “high polyreactivity”.
To “QVQLVESGGGLVQAGGSLRLICAASGRTFKYYAMGWYRQAPGKERELVATITWSGTSTNYADSVKRRFTISRDIGKNSVYLQMNSLKPEDSAVYYCAARSKRRNYDYWGQGTQVTVSS” belongs “high polyreactivity”; to “QVQLVESGGGLVQAGGSLRLSCAASARIFKTYAMGWYIQAPGKERELVATITWSGGSTYADSVKGRFTITRDNAKNTVYLQMNSLKPEDTAVYYCAAGRTYYSPGYRSYSGYDYWGQGTQVTLSS”, “high polyreactivity”.
The entry for “QVQLVESGGGLVQAGGSLRLSCAASGSIFAYNAMGWYIQAPGKERELVATITVRGGSTYYADSVKGRFTISRDNAKNTFYLQMNSLKPEDTAVYFCAVRTYRYYRYNYWGQGTQVTVSS” is “high polyreactivity”.
For the sequence “QVQLVESGAGLVQAGGSLRLSCAASGSTFDAYALGWSRPAPGKERELVAGISSGGSYEFADSVKGRFTISRDYAKNTVYVQMNSLKPEDTAVYYCAADSRQSDYYYQPTKFDYWGQGTQVTVSS”, the “polyreactivity (PSR sort gate)” value is given as “low polyreactivity”.
For “QVQLVESGGGLVQAGGSLRLSCAASGIIFRYYAMGWYRQAPGKERELVAAISSSGVSTYYADSVKGRFTISRDNAKNNVYLQMNSLKPEDTAVYYCAAVTTWRMDYWGQGTQVNVSS”, the “polyreactivity (PSR sort gate)” value was “high polyreactivity”.
“QDQLVESGGGLVQAGGSLSLSCAASGSIFGKYTMGWYRQAPGKERELVAGITYRAGSTYYADSVKGRFTISRDNAKITVYLQMNSLKPEDTAVYYCAARFYFRWYYYGSYANYWGQGTQVTVSS”: the “polyreactivity (PSR sort gate)” value is “high polyreactivity”.
On to “QVQLVESGGGLVQAGGSLRLSCAATGSTFGYYAMGWYRQSPGKERELVAAISRSGTSTYYADSVKGRFTISRDNAKNTVYLQMISLKPEDTAVYYCIRYGFNSQDYWGQGTQVTVSS”, for which the “polyreactivity (PSR sort gate)” value is on record as “high polyreactivity”.
The entry for “QVQLVESGGGLVQAGGSLRLSCAASGRIFAPYAMGWYRQAPGKERELVAGISIGGSTYYADSVKGRFTISRDNAKNTVYLQMNSLKPEDTAVYYCAALYNFWYSTYYYWGQGTQVTVSS” is “high polyreactivity”; for “QVQLVESGGGLVQAGGSLRLSCAASGRNFHRYAMGWYRQAPGKERELVATIRSGGGTYYADSVKGRFTISRDNAKNTVYLQMNSLKPEDTAVYDCNAQSSYSYFSGYDYWGQGTQVTVSS” it is “low polyreactivity”; for “QVQLVESGGGLVQAGGSLRLSCAASGNIFGVYAMGWYRQAPGKERELVAAITSGGTSTSYADSVKGRFTISRDNAKNTVYLQINSLKPEDTAVYYCATESSGKLSEYAYWGQGTQVTVSS” it is “low polyreactivity”.
The entry for “QVQLVESGGGLVQAGGSLRLSCAASGSIVSYYAMGWYRQAPGIERELVAAITTRGGRSYYADSVMGRFTISRDYAKNTVYLPMNSLKPEDTAVYYFNRYPGYIQGDYDYWGQGTQVTVSS” is “high polyreactivity”; for “QVQLVESWGGLVQAGGSLRLSCAASGRTFYSYVMGWYRKAPGKEREMVAAITSGGSTYYADSVKGRFTISRDNAKNTVYLQMNSLKPEDTAVYYCAADGDYASYDTFWYWAPEYDYWGQGTQVTVSS” it is “low polyreactivity”; for “QVQLVESGGGLVQAGGSLRLSCAASGSTFGPYAMGWYRQAPGKERELVAVITTSGSTNYADSVKGRFTISRDNAKNTVYLQMNSLKPEDTAVSYCAARYRYYGTNRYYYWGQGTQVTVSS” it is “high polyreactivity”.
To “QVQLVESGGPLVQAGGSLRLSCAASGRTIRYYTMGWYRQAPGKEREFVAAITSTGGTYYADSVKGRFTSSRDNAKNTVYLQRTSLKQEDTGVYYCAATFIQFVVNVQLYDYDYWGQGTQVTVSS” belongs “low polyreactivity”; to “QVQLVESGVGLVQAGGSLRLICAASGSTFGYYAMGWYRQAPGKERELVAAITGRGGSTYYADSVKGRFTISRDNAKNTVYLQMNSLKPEDTAVYYCAVGKYRLYYSGAYGFWGQGTQVTVSS”, “high polyreactivity”; to “QVQLVESGGGIVQAGGSLRLSWAASGRNFYRNAMGWYRQAPGKERELVAAISRSGGSTYYADSVKGRFTISRDNAKNTVYLQMNSLKAADTAVYYFNAYRYLQSGPPRYREHGSWGQGTQVNVSS”, “low polyreactivity”.
For “QVQLVESGGGLVQAGGSLRLSCAASGSIFWGYAMGWYRQAPGKERELVAAITRGDTTNYADSVKGRFTISRDNAKNTVYLQMNSLKPEDTAVYYCAATPDPPHTYEYWGQGTQVTVSS”, the “polyreactivity (PSR sort gate)” value is “low polyreactivity”.
To “QVHLVESGGGLVQAGGSLRLSCAASGRTFWIYGMGWYRPATGKERELVAAITRSGGSTNYADSVKGRFTLSRDNAKNNVYLQMNSLKPEVTAVYYGAADTWYPGYYAYDYRGQGTQVTVSS” belongs “high polyreactivity”; to “QVQLVESGGCLVQAGGSLRLSCAASGFIFSYYTMGWYRQAPGKERALVAAISYSGGSTYYADSVKGRFTISRDNAKKTVYLQMNSLKPEDTAVYYCAAETYGYYVIRYDYWGQGTQVTVSS”, “high polyreactivity”; to “QVQLVESGGGLVQAGGSLRLSCAASGFTFGLYAMGWYRQAPGKERELVAAITWSGGSTYYADSVKGRFTISRDNAKNTVYLQMNSLKPEDTAFYYCNRLSNNREYDYWGQGTQVTLSS”, “high polyreactivity”.
“QVQLVESVGGLVQAGGSLRLSCAASGSIIKVYAMGWYRQAPGKERELVAGIRGSGGRTYYADSVKGRFTISRDNAKNTVYLQMNSLKPEDTAVYYCNARNPGRLGRFDYWGQGTQVTVSS”: the “polyreactivity (PSR sort gate)” value is on record as “low polyreactivity”.
On to “QVQLVESGGGLVQAGGSLRLSCSASGRTLTRYTMGWYRKAPGKERELVAGITRSGGSTYYADSVNGRFTISRDNAKNTVYLKMNSLKPEDTAVYYCAVKQRDKFAGGRNDYWGQGTQVTVSS”, for which the “polyreactivity (PSR sort gate)” value is recorded as “high polyreactivity”.
The entry for “QVQLVESGGGLVQAGGSLRLSCAASGRTFLPNAMGWYRQAPGKERELVAVITSGGSTNYADSVKGRFTISRDNAKNTVYLQMNSLKPEDTAVYYCAARRWSSSQGHWGKSAGYGYWGQGTQVTVSS” is “low polyreactivity”.
For the sequence “QVQRVESGGGLVQEGRSLRLSCAASGFIFSVYAMGWYRQAQGKERELVAAMTWNGGRTYYADSVKGRFRISRDHAKNTVYLQMNSVKPEDTAVYYCAADSRGALNSVYRYGSIVEGDYWGQGTQVTVSS”, the “polyreactivity (PSR sort gate)” value is recorded as “low polyreactivity”.
As to “QVQLVESGGGLVQAGGSLRLSCAASGFIFKSYAMGWYRQAPGKERELVAAISGRGGSTYYADSVKGRFTISRDNAKNTVYLQMNSLKPEDPAVYYCNVGPSTYYQYDYWGQGTQVTVSS”, the “polyreactivity (PSR sort gate)” value was “high polyreactivity”.
For “QVQLVESGGGLVQAGGSLRLSCAASGRTFHLYAIGWSRQAAGKERELVAAINSGGRTNYADSVKGRFTISLDNAKNTVYLQLNSLKPEDTAVYYCAARANPYVLKYYYWGQGSQVTVSS”, the “polyreactivity (PSR sort gate)” value is reported as “high polyreactivity”.
The entry for “QVQLVESGGGLVQAGGSLRLTCAASGRTLYRYAMGWYRQAPGKERELVAAITNGGSTKYADSVKGRFTISRDNAKNTVYLQMNSLKPEDTAVYYCYAVVNFILLRIYYGQLYNYWGQGTQVTVSS” is “low polyreactivity”; for “QVQLVESGGGLVQAGGSLRLSCAASGRTFYTNAMGWYRQAPGKERELVASISGSGGSTYYADSVKGRFTISRDNGKNTVYLQMNSLNPEDTAVYYCAADPAPTVEFGKYDYWGQGTQVTVSS” it is “low polyreactivity”; for “QVKLVESGGGLVQEGGSLRLSCAASGRIFGNYAMGWYRQAPGKERELVAAIDLSGDSTYYADSVKGRFTISRDNAKNTVYLQMNSLKPEDTAVYYCAATDWFSEYFWGQGTQVTVSS” it is “low polyreactivity”.
To “QVQLVESGGGLVQAGGSLRLSCAASGSIFRSYAMGWYRQAPGKERELVARITYRGGGTYYADSVKGRVTISRDNAKNTVYLQMKSLKPEVTAVYYCAASGAFVRTRVTTADYDYWGQGTQVTVSS” belongs “high polyreactivity”; to “QVQLVESGGGLVQAGGSLRLSCAASGRIFEKYAMGWYRQAPGKERELVAAISYSGGSTYYADSVKGRFTISRDNAKNTVYLQMNSLKPEDTAVYYCARYSRTQAYDYWGQGTQVTVSS”, “high polyreactivity”; to “QVHLVESGGGLVQAGGSLRLSCAASGFTFRTYAMGWYRQAPGKERELVAAITRNGGTYYADSVKGRFTISRDNAKNTVNLQMNSLKPEDTAVYYCATDPAYWGDQPPEDDYWGQGTQVTVSS”, “low polyreactivity”.
To “QVQLLESGGGIVQAGGSLRLSCAASGRTFSRYVMGWYRQAPGKERELVATISRSGGSTFYADSVKGRFTISRDNAKNTVYLQMNSLKPEDTAVYYCNKKVQGYQVTYGYWGQGTQVTVSS” belongs “high polyreactivity”.
As to “QFQLVESGGGLVQAGGSLRLSCAASGIIFDYNAMGWYRQAPGKERELVAAITRGGSTYYADSVNGRFTISRDNAKNTVYVQMTSLKPEDTAVYYCKAVLPVHWSWYDYWGQGTQVTVSS”, the “polyreactivity (PSR sort gate)” value is on record as “low polyreactivity”.
The entry for “QVQLVESGGGLVQAGGSNRLSCAASGYIFDIYAMGCYRQAPVKERELVAVITRSGGGTYYADSVKGRFTISRDNAKNSVYLQMNSLKPEDTAVYYCAAESYVYGGSDYDYWGQGTQVTVSS” is “low polyreactivity”.
